The data set concerns HEK293T. The data set is described as follows: median enrichment of reporter reads in eGFP-reduced (low/intermediate) vs eGFP-high sorted cells (eGFP-extension fusion abundance) (ratio); higher = stronger loss of eGFP-fusion protein abundance (more destabilising extension).

Values joined by “and” are separate entries in the source; they are usually repeats but may differ in a detail not shown here. Equal values may be shown once.
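Note: lentiviral eGFP-IRES-mCherry reporter pool sorted by FACS 96 h post-transduction, gated on mCherry-high cells, Illumina read counts normalized per million, median across four biological replicates.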

As for QTA [FMR1], the median enrichment is 0.337. Consider QHTQNSLTRTISFCKGF [KRR1], for which the median enrichment is 1.62. The value for YNPFALMSLPFVT [SIX2] was 1.36. Consider YRCEGIGETLGWLVMVSIAGHQKLDS [B4GALNT2], for which the median enrichment stood at 17.4. In the case of “LIPVDPQGLAKARDTQREMLVIPLENLASNFLYV [KRT38]”, the median enrichment amounted to 39.9. With “RESSCILENTIPDFPQTALHQYNCISSFYIVQ [SCRG1]” the figure was 13.8; with LKVSVNLQC [ZFR], 6.3. The value for QATPAWPRSQDTGQGRPGPEELGAGPQT [APBA2] was 0.312. As to “CFSRGQGGEGASGGVGAGGTVPREPGGSHTRTAPVSSGHCNPVGLFLQHSRSLPSIATLQTPG [SFRP1]”, the median enrichment stood at 4.21.

In the case of RTQTPQSSRLALLRLRGPQKSPPK [TSGA13], the median enrichment is 9.36. The value for “WGQCLPAPPLASSSAPRVPSVDPIRPAMASYSKMV [ACO2]” was 0.96; that for YDFQKTLILFLKL [PRDM1] was 8.51. As for SGTWCATGCKLQGIFIGCSCIVLHSSAIYF [PSEN2], the median enrichment turned out to be 7.44. Consider EKLVLCSG [ZDBF2], for which the median enrichment came out at 5.06.

For the substance ESPLFLPTLQGPHSPYPSVQCTREETLCL [IDH3B], the median enrichment stood at 13.1. The value for LTLTV [ABCB1] was 1.67; that for ETSGFSSQTF [ELP5] was 0.462; that for SCNPTRAHFIIAETSVCIPVITHCNRATN [IDO1] was 4.95. Consider LGRIMASFQNSFS [OR2AG1], for which the median enrichment was 7.84. For “GGGGQVTRSGLSFWGCRSTEPLTPVCPRSPNRCGSSSERLSVQAMGQDRKVPELGKPGCNFLLHPAPPEVLRRVFLGIVFCSC [JUP]”, the median enrichment turned out to be 5.66. Regarding RIFCLVASQLGVL [GXYLT2], the median enrichment came out at 6.32. RVFHP [ZSWIM8]: the median enrichment was 0.463. Turning to TTTTTTTTT [Thr09], the median enrichment was 0.552. On to LWRWWPRGGLLGGVGDKTGQTTGPPKTVKG [HS6ST1], for which the median enrichment stood at 11.4. For “QSTLTYFQKYNFRYHANFMTSKGCCYNVLTER [TDGF1]”, the median enrichment was found to be 6.46. As for LNFNKTFKITEIFKI [LIAS], the median enrichment stood at 9.41. QIL [TMEM244]: the median enrichment was 0.849. Take RDASTGPSLFCPQP [HSPB8]: the median enrichment was determined as 0.453.

Consider YYYYY [Tyr05], for which the median enrichment was 22.4. Turning to “LVSLPLVSAWQPPPPTYHPSPITQVNVTNLPCLHINLYIFGCSPYLMAVIIYRYVYPCYLVVSFSRGGTVFYSSLCPLFLSSV [PGLYRP4]”, the median enrichment was 2.37. For the substance “KIWLFMHCGMCSSFSVFRYKVLYQSVIYKVYQHKCW [MLH1]”, the median enrichment is 5.38. Turning to RESLHLEITTGYASGI [ZNF41], the median enrichment worked out at 5.83. Turning to “YQGPSQYPWRTREIAPYRQWRGVPSHRQEPEAQAAHPFQPSRTHTDGREGGHSMNYC [XYLT2]”, the median enrichment is 1.21.

Regarding “WGHIQDNYTFAQPGIQMKVKMLEELVSRIDEQVHRHLDQHEVRYLQFAFRWMNNLLMREVPLRCTIRLWDTYQSEPDGFSHFH [TBC1D22A]”, the median enrichment amounted to 11.6. The value for “RPGAQPCAAEDSRDWRRPRPATAGARGHLPGLLTLSPHWEWAPRGRASAVAASAPGRAGPPRGPVLVFCRRTQPPPIPDSSLG [TMUB1]” was 6.53; that for LLLLLLL [Leu07] was 12.7; that for CSPMPAHL [CDNF] was 7.02.

For the substance “GRGMASGREGGIVGGQGSGFGSRWEQGLVKLFVSGPQ [PAQR7]”, the median enrichment turned out to be 12.5. The value for SIFFYQEG [PTEN] was 2.76. As to CCC [Cys03], the median enrichment amounted to 1.07. As to “QEMWSLRCLKSTTMPGIEEDYYLKQWALVFGASDMPSILPSWN [G6PC]”, the median enrichment came out at 10.6. Consider “KILNLVCRPSRGIKRLALVVKNKADSQTRSDFCPCSSFDVLSVALFLIASSTCKMLFTFCLG [DAB2]”, for which the median enrichment came to 18.3. As to “GGRACTGATQPGLGAASPQPPRAKNLFIKECFGTL [LMNA]”, the median enrichment is 17.9. Regarding RGPALPPCTSPGAERS [PRMT1], the median enrichment was 1.08. Regarding SNLSPRRPEVNRHLGRGRACV [NAXD], the median enrichment is 1.3. On to LRMKQLLSGPALPHSCASSALLSSQT [LCN12], for which the median enrichment is 30.4. Regarding YTLGKITYLSSCE [OR10G8], the median enrichment turned out to be 13.7. With SFQNWMDFYFFQ [CCDC169], the median enrichment came out at 19.6. Consider SVCAGDQINRLGCAK [NOSIP], for which the median enrichment was determined as 1.17. In the case of SCVKSFSVFSTFIKTQDNSYWREILQM [ZNF708], the median enrichment came out at 11.8.

For HHHHHHHHH [His09], the median enrichment worked out at 0.435. As for WLLITLSHFLVMH [KRTAP22-2], the median enrichment was 13.9. Consider SHH [SPRY2], for which the median enrichment amounted to 0.73. As for “RAWVLTPGRATLSDLKMRILGTGCLSPQQNQNESLKAQDSAFATLPLSWYRRWM [ZNF410]”, the median enrichment is 8.88. With YVLCYNGVIVPKCPH [OR51F2] the figure was 5.24. The value for “FLELKHPRMPLHVFHSPHLQTSLLFLTRPESKLPSLGNSGEGVSCTTYHTPSHPVSDFGMDSGKLGPSLNRVMYLNVCYFQPP [HSPA1L]” was 6.57; that for YPALLPSDGHPSRGLSHTVPLRSA [CTDSP2] was 9.24. For the substance RDVQDL [ZMPSTE24], the median enrichment was determined as 0.177. In the case of YVPVSPFIAAFPWGRQ [CXCR5], the median enrichment was 6.43 and 2.95. As for SPPGPSPGSGTLVPNPERSALLP [VPS35L], the median enrichment is 0.894.

As for YVGRSPRPLPSSGDNQQ [CPNE9], the median enrichment was 0.56. With “SLRSLRAGPSAAGSCLNTSLDMARTHRDTGQDQPCLWRQDTTIWPMAVTSCRVQSQTGNHHLRQDLPASFTFLISRALPPILC [SLC22A13]” the figure was 8.01; with SGLDSTRALENEMTV [APCS], 0.582. Regarding “SDYCKPLPLLPCLCLFSPLTYSISQPPPTCLCDLRTVPSRHWDKGRISCSPPESAWCCPLFPLCAYD [PRPF3]”, the median enrichment turned out to be 2.87.

For the substance “WSPQHQGGPSLKRKEPTQVRGLPIPPSQVSTFALPPSHWGPCRSWSGLTVPSPGTQLKGPQPKL [CAND2]”, the median enrichment was found to be 8.57.

As to “RAKPDGQHRHRHTPQGPTLLSFTVPWHIGERIYPSPGSPGHSVLSKTRMWYQLWKRKVSCQQYLLPSRQPSQVRHLLRSHREP [SPSB4]”, the median enrichment was determined as 7.24. In the case of RTSRPTTLRKIEW [HCAR1], the median enrichment is 1.94. Take TTTTTTT [Thr07]: the median enrichment turned out to be 0.319.

As for LARAPRGHLGRPREAEGHGVGGSRRVPASMVPALDLQLP, the median enrichment was determined as 5.4. The value for “SGLSDCPCPAHHPVTATPKPTPTGAHCPTPAPGRHPAGHFTCCH [FERMT3]” was 1.55; that for YYYYYYYYYY [Tyr10] was 6.9; that for YPNIIQGTEIKELRFKHKCLAQTYL [EEF1E1] was 7.38. Turning to SGASQRSAHADNKVALSLE [FIBP], the median enrichment stood at 0.209.

In the case of “QLVKTMGVVLTQPPIPQGASGQSFWHCSRIPPSWCVWRVGKAGRDINLEENT [ARHGEF25]”, the median enrichment amounted to 6.94.

Turning to CEGQTPEEPLQ [CXCL12], the median enrichment worked out at 0.136. Regarding “YATRRCPRPSRRRGSLAGAAPPCVRPAGAHVF [HHIPL1]”, the median enrichment came out at 11.3. Turning to LLRDPAPPL [AHSP], the median enrichment worked out at 4.96.

For the substance “DLASKKSCSVPCVLSFKGIFRINSDLEDSSVLQRLAFIFIVIMEMLSFILSYIRKKGVMQLISISLGNALVLFSSFLVPVTCL [CREB5]”, the median enrichment came to 14. On to RSHFCQMLPSTINALGGRRGRQ [ETHE1], for which the median enrichment was determined as 12.6. As for GWGLQGRGLAPFSLSY [NR1H4], the median enrichment came out at 13.8. Regarding RGK [PKP2], the median enrichment came out at 0.513. On to SREHENGSMTLPDTDAT [TP53], for which the median enrichment is 0.734. On to YMSEHGLSQACLHGIRLATPARPPGWFFSS [TJP2], for which the median enrichment was determined as 4.38. As to RGNMCNVLTKVTGTY [PLEKHS1], the median enrichment is 1.76. Consider “SAMVSRAPHTRVYTRTMWYVARPGPGVRLGQPQLSLPLLLIQGVTRHLSLCYFWPQQEPVLGYFCPCSSQPNSGLAHPSPPPK [KCNJ11]”, for which the median enrichment was 5.63.

For the substance SMFESHASLWKQYAM [STAT5A], the median enrichment was found to be 0.883.

Turning to RGGRWEPSFQ [OR6Q1], the median enrichment worked out at 0.248. Regarding GSGP [LCE1D], the median enrichment is 0.314. For IIIIII [Ile06], the median enrichment was 8.61. Consider YLDHDLVQ [TRAT1], for which the median enrichment came to 0.456. Regarding LLLLLLLL [Leu08], the median enrichment worked out at 6.62. Regarding RGAF [HPX], the median enrichment was found to be 0.586. With YILLADHYCGLKDDHLV [WFDC9] the figure was 7.3. As for “GWLPRPGRLLDILFWLNIVLWMVPQSGARILPRRKATNGSGNYIKPETLQQGENCAPGCLAQASLEPSKHFCPS [MAB21L3]”, the median enrichment was found to be 7.37. As for “SVPRPCQPCCTGCRHCTRCEGSTPAQAEFLGSTSPAAWGTGIAHSVNGSTPAWAESLGSDLAAWGESLGSVLAAWGAGIAQSM [WNT9A]”, the median enrichment amounted to 7.93. On to SRL [ICAM4], for which the median enrichment was determined as 0.718.

Regarding LFDDRDLH [VAMP4], the median enrichment came out at 0.625. In the case of CATLSVGFFLEDSTLLPHVLSQLQS [CSTF1], the median enrichment worked out at 8.47. On to “GVSGGEERRADLGRALRTWPRARDSPGSSSPWQAQQHVPQIWKGLPLCQCLGGCHGCPHPLLSVCGVEEPTPASCQDHLGGHT [GPRC5C]”, for which the median enrichment stood at 1.27. On to YPSQGCSSVPSRRMWQGRAGSE [SERPINA4], for which the median enrichment is 0.599.

In the case of LGTQASPSLTAEVRNKRWFRVPA [PSMC3], the median enrichment stood at 8.36.

With WIEKI [GTF2A2], the median enrichment came out at 1.64.

Regarding “LPSASGSVVGQALIPALWGGSLYSLFGGMVTEFIVEPFSVQMLWLQIRNPTSPG [GOLGA3]”, the median enrichment amounted to 4.27. RQRPPAPALPQPSY [SART1]: the median enrichment stood at 0.558.

As to KSTSSHETE [UNC5D], the median enrichment amounted to 1.07.

For the origin of these results see the supplement of paper PMC11502859.
